# Experimental data from the supplement of paper PMC11316812.
# ± gives the standard deviation of the averaged measurements.
# How the values were obtained:
# MCF7 = test: percentage of EdU-negative (G0-arrested) nuclei per well, 72 h; higher = more G0 arrest; details: reference: sequence is the full UniProt precursor, the tested protein was the secreted form or ectodomain
# hTERT-HMEC = test: as above; details: reference: sequence is the full UniProt precursor, the tested protein was the secreted form or ectodomain
# [1] = protein concentration 0.02657 µM
# [2] = protein concentration 0.2657 µM
# [3] = protein concentration 0.009215 µM
# [4] = protein concentration 0.09215 µM
# [5] = protein concentration 0.0070625 µM
# [6] = protein concentration 0.070625 µM
# [7] = protein concentration 0.01725 µM
# [8] = protein concentration 0.1725 µM
# [9] = protein concentration 0.00975 µM
# [10] = protein concentration 0.0975 µM
# [11] = protein concentration 0.0240725 µM
# [12] = protein concentration 0.240725 µM
# [13] = protein concentration 0.00742857 µM
# [14] = protein concentration 0.0742857 µM
# [15] = protein concentration 0.0225 µM
# 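Note: secreted proteins added to cultured cells, EdU pulse at the end, nuclei found by Hoechst imaging, EdU status from nuclear versus surrounding ring intensity ratio, PBS as neutral control.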
sequence,measurement,setting,value
MFTIKLLLFIVPLVISSRIDQDNSSFDSLSPEPKSRFAMLDDVKILANGLLQLGHGLKDFVHKTKGQINDIFQKLNIFDQSFYDLSLQTSEIKEEEKELRRTTYKLQVKNEEVKNMSLELNSKLESLLEEKILLQQKVKYLEEQLTNLIQNQPETPEHPEVTSLKTFVEKQDNSIKDLLQTVEDQYKQLNQQHSQIKEIENQLRRTSIQEPTEISLSSKPRAPRTTPFLQLNEIRNVKHDGIPAECTTIYNRGEHTSGMYAIRPSNSQVFHVYCDVISGSPWTLIQHRIDGSQNFNETWENYKYGFGRLDGEFWLGLEKIYSIVKQSNYVLRIELEDWKDNKHYIEYSFYLGNHETNYTLHLVAITGNVPNAIPENKDLVFSTWDHKAKGHFNCPEGYSGGWWWHDECGENNLNGKYNKPRAKSKPERRRGLSWKSQNGRLYSIKSTKMLIHPTDSESFE [Q9Y5C1],percentage of EdU-negative,MCF7; [1],25.5 ± 1.9%
same,percentage of EdU-negative,MCF7; [2],25.9 ± 2.1%
same,percentage of EdU-negative,hTERT-HMEC; [1],4.63 ± 0.83%
same,percentage of EdU-negative,hTERT-HMEC; [2],6.34 ± 0.5%
MFWKLSLSLFLVAVLVKVAEARKNRPAGAIPSPYKDGSSNNSERWQHQIKEVLASSQEALVVTERKYLKSDWCKTQPLRQTVSEEGCRSRTILNRFCYGQCNSFYIPRHVKKEEESFQSCAFCKPQRVTSVLVELECPGLDPPFRLKKIQKVKQCRCMSVNLSDSDKQ [Q9H772],percentage of EdU-negative,MCF7; [3],22.3 ± 1.6%
same,percentage of EdU-negative,MCF7; [4],27.2 ± 0.92%
same,percentage of EdU-negative,hTERT-HMEC; [3],5.28 ± 0.078%
same,percentage of EdU-negative,hTERT-HMEC; [4],5.14 ± 0.38%
MGAAARLSAPRALVLWAALGAAAHIGPAPDPEDWWSYKDNLQGNFVPGPPFWGLVNAAWSLCAVGKRQSPVDVELKRVLYDPFLPPLRLSTGGEKLRGTLYNTGRHVSFLPAPRPVVNVSGGPLLYSHRLSELRLLFGARDGAGSEHQINHQGFSAEVQLIHFNQELYGNFSAASRGPNGLAILSLFVNVASTSNPFLSRLLNRDTITRISYKNDAYFLQDLSLELLFPESFGFITYQGSLSTPPCSETVTWILIDRALNITSLQMHSLRLLSQNPPSQIFQSLSGNSRPLQPLAHRALRGNRDPRHPERRCRGPNYRLHVDGVPHGR,percentage of EdU-negative,MCF7; protein concentration 0.021 µM,25.5 ± 1.3%
same,percentage of EdU-negative,MCF7; protein concentration 0.21 µM,24.9 ± 0.45%
same,percentage of EdU-negative,hTERT-HMEC; protein concentration 0.021 µM,4.83 ± 0.27%
same,percentage of EdU-negative,hTERT-HMEC; protein concentration 0.21 µM,7.53 ± 1.3%
MGAARLLPNLTLCLQLLILCCQTQGENHPSPNFNQYVRDQGAMTDQLSRRQIREYQLYSRTSGKHVQVTGRRISATAEDGNKFAKLIVETDTFGSRVRIKGAESEKYICMNKRGKLIGKPSGKSKDCVFTEIVLENNYTAFQNARHEGWFMAFTRQGRPRQASRSRQNQREAHFIKRLYQGQLPFPNHAEKQKQFEFVGSAPTRRTKRTRRPQPLT,percentage of EdU-negative,MCF7; [5],26.1 ± 0.65%
same,percentage of EdU-negative,MCF7; [6],25.6 ± 3.5%
same,percentage of EdU-negative,hTERT-HMEC; [5],4.842 ± 0.02%
same,percentage of EdU-negative,hTERT-HMEC; [6],5.5 ± 0.25%
MGAASGRRGPGLLLPLPLLLLLPPQPALALDPGLQPGNFSADEAGAQLFAQSYNSSAEQVLFQSVAASWAHDTNITAENARRQEEAALLSQEFAEAWGQKAKELYEPIWQNFTDPQLRRIIGAVRTLGSANLPLAKRQQYNALLSNMSRIYSTAKVCLPNKTATCWSLDPDLTNILASSRSYAMLLFAWEGWHNAAGIPLKPLYEDFTALSNEAYKQDGFTDTGAYWRSWYNSPTFEDDLEHLYQQLEPLYLNLHAFVRRALHRRYGDRYINLRGPIPAHLLGDMWAQSWENIYDMVVPFPDKPNLDVTSTMLQQGWNATHMFRVAEEFFTSLELSPMPPEFWEGSMLEKPADGREVVCHASAWDFYNRKDFRIKQCTRVTMDQLSTVHHEMGHIQYYLQYKDLPVSLRRGANPGFHEAIGDVLALSVSTPEHLHKIGLLDRVTNDTESDINYLLKMALEKIAFLPFGYLVDQWRWGVFSGRTPPSRYNFDWWYLRTKYQGICPPVTRNETHFDAGAKFHVPNVTPYIRYFVSFVLQFQFHEALCKEAGYEGPLHQCDIYRSTKAGAKLRKVLQAGSSRPWQEVLKDMVGLDALDAQPLLKYFQPVTQWLQEQNQQNGEVLGWPEYQWHPPLPDNYPEGIDLVTDEAEASKFVEEYDRTSQVVWNEYAEANWNYNTNITTETSKILLQKNMQIANHTLKYGTQARKFDVNQLQNTTIKRIIKKVQDLERAALPAQELEEYNKILLDMETTYSVATVCHPNGSCLQLEPDLTNVMATSRKYEDLLWAWEGWRDKAGRAILQFYPKYVELINQAARLNGYVDAGDSWRSMYETPSLEQDLERLFQELQPLYLNLHAYVRRALHRHYGAQHINLEGPIPAHLLGNMWAQTWSNIYDLVVPFPSAPSMDTTEAMLKQGWTPRRMFKEADDFFTSLGLLPVPPEFWNKSMLEKPTDGREVVCHASAWDFYNGKDFRIKQCTTVNLEDLVVAHHEMGHIQYFMQYKDLPVALREGANPGFHEAIGDVLALSVSTPKHLHSLNLLSSEGGSDEHDINFLMKMALDKIAFIPFSYLVDQWRWRVFDGSITKENYNQEWWSLRLKYQGLCPPVPRTQGDFDPGAKFHIPSSVPYIRYFVSFIIQFQFHEALCQAAGHTGPLHKCDIYQSKEAGQRLATAMKLGFSRPWPEAMQLITGQPNMSASAMLSYFKPLLDWLRTENELHGEKLGWPQYNWTPNSARSEGPLPDSGRVSFLGLDLDAQQARVGQWLLLFLGIALLVATLGLSQRLFSIRHRSLHRHSHGPQFGSEVELRHS,percentage of EdU-negative,MCF7; [7],27.2 ± 0.68%
same,percentage of EdU-negative,MCF7; [8],28.2 ± 4.2%
same,percentage of EdU-negative,hTERT-HMEC; [7],4.7 ± 0.63%
same,percentage of EdU-negative,hTERT-HMEC; [8],5.68 ± 0.65%
MGADGETVVLKNMLIGINLILLGSMIKPSECQLEVTTERVQRQSVEEEGGIANYNTSSKEQPVVFNHVYNINVPLDNLCSSGLEASAEQEVSAEDETLAEYMGQTSDHESQVTFTHRINFPKKACPCASSAQVLQELLSRIEMLEREVSVLRDQCNANCCQESAATGQLDYIPHCSGHGNFSFESCGCICNEGWFGKNCSEPYCPLGCSSRGVCVDGQCICDSEYSGDDCSELRCPTDCSSRGLCVDGECVCEEPYTGEDCRELRCPGDCSGKGRCANGTCLCEEGYVGEDCGQRQCLNACSGRGQCEEGLCVCEEGYQGPDCSAVAPPEDLRVAGISDRSIELEWDGPMAVTEYVISYQPTALGGLQLQQRVPGDWSGVTITELEPGLTYNISVYAVISNILSLPITAKVATHLSTPQGLQFKTITETTVEVQWEPFSFSFDGWEISFIPKNNEGGVIAQVPSDVTSFNQTGLKPGEEYIVNVVALKEQARSPPTSASVSTVIDGPTQILVRDVSDTVAFVEWIPPRAKVDFILLKYGLVGGEGGRTTFRLQPPLSQYSVQALRPGSRYEVSVSAVRGTNESDSATTQFTTEIDAPKNLRVGSRTATSLDLEWDNSEAEVQEYKVVYSTLAGEQYHEVLVPRGIGPTTRATLTDLVPGTEYGVGISAVMNSQQSVPATMNARTELDSPRDLMVTASSETSISLIWTKASGPIDHYRITFTPSSGIASEVTVPKDRTSYTLTDLEPGAEYIISVTAERGRQQSLESTVDAFTGFRPISHLHFSHVTSSSVNITWSDPSPPADRLILNYSPRDEEEEMMEVSLDATKRHAVLMGLQPATEYIVNLVAVHGTVTSEPIVGSITTGIDPPKDITISNVTKDSVMVSWSPPVASFDYYRVSYRPTQVGRLDSSVVPNTVTEFTITRLNPATEYEISLNSVRGREESERICTLVHTAMDNPVDLIATNITPTEALLQWKAPVGEVENYVIVLTHFAVAGETILVDGVSEEFRLVDLLPSTHYTATMYATNGPLTSGTISTNFSTLLDPPANLTASEVTRQSALISWQPPRAEIENYVLTYKSTDGSRKELIVDAEDTWIRLEGLLENTDYTVLLQAAQDTTWSSITSTAFTTGGRVFPHPQDCAQHLMNGDTLSGVYPIFLNGELSQKLQVYCDMTTDGGGWIVFQRRQNGQTDFFRKWADYRVGFGNVEDEFWLGLDNIHRITSQGRYELRVDMRDGQEAAFASYDRFSVEDSRNLYKLRIGSYNGTAGDSLSYHQGRPFSTEDRDNDVAVTNCAMSYKGAWWYKNCHRTNLNGKYGESRHSQGINWYHWKGHEFSIPFVEMKMRPYNHRLMAGRKRQSLQF,percentage of EdU-negative,MCF7; [9],26.36 ± 0.12%
same,percentage of EdU-negative,MCF7; [10],26.4 ± 0.85%
same,percentage of EdU-negative,hTERT-HMEC; [9],5.09 ± 0.52%
same,percentage of EdU-negative,hTERT-HMEC; [10],6.03 ± 1.7%
MGAGATGRAMDGPRLLLLLLLGVSLGGAKEACPTGLYTHSGECCKACNLGEGVAQPCGANQTVCEPCLDSVTFSDVVSATEPCKPCTECVGLQSMSAPCVEADDAVCRCAYGYYQDETTGRCEACRVCEAGSGLVFSCQDKQNTVCEECPDGTYSDEANHVDPCLPCTVCEDTERQLRECTRWADAECEEIPGRWITRSTPPEGSDSTAPSTQEPEAPPEQDLIASTVAGVVTTVMGSSQPVVTRGTTDNLIPVYCSILAAVVVGLVAYIAFKRWNSCKQNKQGANSRPVNQTPPPEGEKLHSDSGISVDSQSLHDQQPHTQTASGQALKGDGGLYSSLPPAKREEVEKLLNGSAGDTWRHLAGELGYQPEHIDSFTHEACPVRALLASWATQDSATLDALLAALRRIQRADLVESLCSESTATSPV,percentage of EdU-negative,MCF7; [11],24.6 ± 0.37%
same,percentage of EdU-negative,MCF7; [12],23 ± 1.5%
same,percentage of EdU-negative,hTERT-HMEC; [11],4.77 ± 0.43%
same,percentage of EdU-negative,hTERT-HMEC; [12],4.6 ± 0.64%
MGALARALPSILLALLLTSTPEALGANPGLVARITDKGLQYAAQEGLLALQSELLRITLPDFTGDLRIPHVGRGRYEFHSLNIHSCELLHSALRPVPGQGLSLSISDSSIRVQGRWKVRKSFFKLQGSFDVSVKGISISVNLLLGSESSGRPTVTASSCSSDIADVEVDMSGDLGWLLNLFHNQIESKFQKVLESRICEMIQKSVSSDLQPYLQTLPVTTEIDSFADIDYSLVEAPRATAQMLEVMFKGEIFHRNHRSPVTLLAAVMSLPEEHNKMVYFAISDYVFNTASLVYHEEGYLNFSITDDMIPPDSNIRLTTKSFRPFVPRLARLYPNMNLELQGSVPSAPLLNFSPGNLSVDPYMEIDAFVLLPSSSKEPVFRLSVATNVSATLTFNTSKITGFLKPGKVKVELKESKVGLFNAELLEALLNYYILNTFYPKFNDKLAEGFPLPLLKRVQLYDLGLQIHKDFLFLGANVQYMRV,percentage of EdU-negative,MCF7; [13],23.1 ± 3.5%
same,percentage of EdU-negative,MCF7; [14],26.4 ± 0.82%
same,percentage of EdU-negative,hTERT-HMEC; [13],5.11 ± 0.45%
same,percentage of EdU-negative,hTERT-HMEC; [14],7.684 ± 0.069%
MGALRPTLLPPSLPLLLLLMLGMGCWAREVLVPEGPLYRVAGTAVSISCNVTGYEGPAQQNFEWFLYRPEAPDTALGIVSTKDTQFSYAVFKSRVVAGEVQVQRLQGDAVVLKIARLQAQDAGIYECHTPSTDTRYLGSYSGKVELRVLPDVLQVSAAPPGPRGRQAPTSPPRMTVHEGQELALGCLARTSTQKHTHLAVSFGRSVPEAPVGRSTLQEVVGIRSDLAVEAGAPYAERLAAGELRLGKEGTDRYRMVVGGAQAGDAGTYHCTAAEWIQDPDGSWAQIAEKRAVLAHVDVQTLSSQLAVTVGPGERRIGPGEPLELLCNVSGALPPAGRHAAYSVGWEMAPAGAPGPGRLVAQLDTEGVGSLGPGYEGRHIAMEKVASRTYRLRLEAARPGDAGTYRCLAKAYVRGSGTRLREAASARSRPLPVHVREEGVVLEAVAWLAGGTVYRGETASLLCNISVRGGPPGLRLAASWWVERPEDGELSSVPAQLVGGVGQDGVAELGVRPGGGPVSVELVGPRSHRLRLHSLGPEDEGVYHCAPSAWVQHADYSWYQAGSARSGPVTVYPYMHALDTLFVPLLVGTGVALVTGATVLGTITCCFMKRLRKR [Q969P0],percentage of EdU-negative,MCF7; [15],25 ± 1.3%
same,percentage of EdU-negative,MCF7; protein concentration 0.225 µM,26.5 ± 0.91%
same,percentage of EdU-negative,hTERT-HMEC; [15],5.09 ± 0.17%
same,percentage of EdU-negative,hTERT-HMEC; protein concentration 0.225 µM,5.05 ± 0.19%
